Protein stability index data for 29 proteins are collected here from the supplement of paper PMC10567573.

This series can be described thus: protein stability index of a GFP-peptide fusion (GPS, HEK-293T) (PSI 1-6); higher = more stable.
Where [1] appears, read: parent: NP_015628.1, c terminus: native.
Where [2] appears, read: parent: NP_009172.2, c terminus: native.
The mark [3] stands for this setting: parent: NP_116010.1, c terminus: native.
Where [4] appears, read: parent: NP_006221.1, c terminus: native.
The mark [5] stands for this setting: parent: NP_002788.1, c terminus: native.

Turning to RERMELLEEAKKMEMAKFRYILPV, where the note is “parent: IOH82264_11, c terminus: a fixed tail appended”, the protein stability index was 2.38. With VIDLFDEQGLSALHLAAQGRHAQT, the protein stability index (parent: IOH82264_122, c terminus: a fixed tail appended) worked out at 2.72. Consider AFKAAALIQRWYRRYVARLEMRRR, for which the protein stability index (parent: IOH82202_4, c terminus: a fixed tail appended) worked out at 3.14. Consider EQRNSRWNTVLRAVKAKTHHLEPA [TRPA1 addA], for which the protein stability index under setting [1] is 4.26. Consider FICQATGDPRPKIVWNKKGKKVSN, for which the protein stability index (parent: IOH82190_8, c terminus: a fixed tail appended) came to 2.13. Turning to LPALFTDLYSQEITAEEAREALP [SNF8 WT], the protein stability index under setting [2] stood at 2.74. Regarding HSLRAVSTDPPHHDHHDEFCLMP [BEX2 WT], under setting [3], the protein stability index was 2.48. With DHSGFISLDEFRQTWKLFSSHMNI, where the note is “parent: IOH82202_112, c terminus: a fixed tail appended”, the protein stability index turned out to be 1.7. Turning to CQPISFSGFGAEDDDLGGLGLGPT [POLD2 addT], the protein stability index under setting [4] came out at 2.6. DGWIRVSSDNVADLHEKYSGSTP [PSMB5 WT]: under setting [5], the protein stability index is 2.42. Turning to LPALFTDLYSQEITAEEAREALPT [SNF8 addT], under setting [2], the protein stability index was 3.79. With DGWIRVSSDNVADLHEKYSGSTPT [PSMB5 addT], the protein stability index under setting [5] worked out at 3.53. Turning to FIPSSHNDRDFLTRIFTEDRFAQD, the protein stability index (parent: IOH82202_13, c terminus: a fixed tail appended) turned out to be 2.05.

As to VSVNAQTLDGRTPLHLAAQRGHYR, the protein stability index (parent: IOH82264_100, c terminus: a fixed tail appended) was 3.37. Regarding LPALFTDLYSQEITAEEAREALPA [SNF8 addA], the protein stability index under setting [2] is 3.42. In the case of CQPISFSGFGAEDDDLGGLGLGP [POLD2 WT], under setting [4], the protein stability index amounted to 2.27. For ITWFKDFLPVDTSNNNGRIKQLRS, the protein stability index (parent: IOH82190_27, c terminus: a fixed tail appended) was determined as 1.83. In the case of EIGTSDQIVPEYQEDSDISSFFC, the protein stability index (parent: IOH82269_63, c terminus: native) was 2.87. As for CQPISFSGFGAEDDDLGGLGLGPA [POLD2 addA], the protein stability index under setting [4] came out at 2.54. Turning to HSLRAVSTDPPHHDHHDEFCLMPA [BEX2 addA], the protein stability index under setting [3] was found to be 3.18. Regarding EQRNSRWNTVLRAVKAKTHHLEPT [TRPA1 addT], the protein stability index under setting [1] is 4.19.

As for DGWIRVSSDNVADLHEKYSGSTPA [PSMB5 addA], the protein stability index under setting [5] came to 2.51. Take PVVSMDLDPQPITDEEEGLIWVVG: the protein stability index (parent: IOH82190_140, c terminus: a fixed tail appended) was determined as 3.88. EQRNSRWNTVLRAVKAKTHHLEP [TRPA1 WT]: the protein stability index under setting [1] was found to be 3.03. Take ELDELLKEISRKRRSIRYGREVEL: the protein stability index (parent: IOH82190_126, c terminus: a fixed tail appended) stood at 2.18. Take AAWQGHLPIVKLLAKQPGVSVNAQ: the protein stability index (parent: IOH82264_97, c terminus: a fixed tail appended) came to 2.35.

Take SYVRSRKRLREEEAARLFKQIVSA: where the note is “parent: IOH82269_29, c terminus: a fixed tail appended”, the protein stability index is 2.13.

On to LTKLREMGREKCHQYWPAERSARY, for which the protein stability index (parent: IOH82190_223, c terminus: a fixed tail appended) was determined as 2.36. Consider AVKKFVESEDDPVVKKIALREIRM [CDKL4 WT], for which the protein stability index (parent: IOH82195_6, c terminus: a fixed tail appended) stood at 2.87.
